From patent publication US20260159561A1 (MyNeuroCure Oy, priority 2017, published 2026)
Entries after “also recorded” stand apart in the source; their conditions may differ.

Key:
[1] = system: rat model of cerebral ischemia
Protocol: Male Sprague Dawley rats (weight 230-270 g, Envigo, Netherlands) were used for the experiments which were conducted according to the 3R principles of EU directive 2010/63/EU on the care and use of experimental animals, local laws and regulations, and were approved by the national Animal Experiment Board of Finland All experiments were performed in a blinded manner and the rats were assigned to different treatment groups randomly. Rats were anesthesized with chloral hydrate (0.4 g/kg, i.p). […] Briefly, the bilateral CCAs were identified and isolated through a ventral midline cervical incision. Rats were placed in stereotaxic apparatus and a craniotomy was made in the right hemisphere. The right (MCA) was ligated with a 10-0 suture and bilateral common carotids (CCA) were ligated with non-traumatic arterial clamps for 60 minutes. After sixty minutes of ischemia, the suture around the MCA and arterial clips on CCAs were removed to introduce a reperfusional injury. After recovery from anesthesia, the rats were returned to their home cage. Body temperatures during and after surgery were maintained at 37° C.
To test the neuroprotective effect of subcutaneous C-CDNF, 50 μg of C-CDNF was given 30-50 min before dMCA occlusion and immediately after reperfusion in volume of 100 μl s.c. Phosphate-buffered saline (PBS) was used as vehicle control. The rats were euthanized 2 days after dMCAo to measure the infarction volume by 2% 2,3,5-triphenyltetrazolium chloride (TTC; Sigma Aldrich, St. Louis, MO) staining. Rats were decapitated and the brains were removed and sliced into 2.0-mm-thick sections using an acrylic rat brain block. The brain slices were incubated in a 2% TTC solution (Sigma, St. Louis, MO, USA) for 15 min at room temperature and then transferred into a 4% paraformaldehyde solution for fixation. The area of infarction in each slice was measured with a digital scanner and ImageJ software. The volume of infarction in each animal was obtained from the product of average slice thickness (2 mm) and sum of infarction areas in rostral brain slices examined. […]

[2] = system: SOD1-G93A mice; assay: SOD1-G93A mouse ALS model, 4-week chronic intracerebroventricular infusion; format: in vivo; conditions: i.c.v. infusion 1.5 μg/24 h for 4 weeks, vs PBS
Description: Transgenic SOD1 G93A mice served as a transgenic mouse model for ALS in this study. Transgenic mice containing various human SOD1 mutations develop progressive neurodegeneration and motoneuron (MN) death, providing an animal model that has been commonly used for preclinical trials and that has greatly contributed to the understanding of FALS pathogenesis (Gurney et al., 1994). […] In these mice hind limb weakness and tremulous movement appear as initial symptoms at 8-10 week of age, followed by major symptoms such as progressive motor paralysis and neurogenic amyotrophy (Shibata 2001). […] Transgenic expression was analyzed by DNA tail tests and PCR, using specific oligonucleotides and conditions as done previously by others (see homepage Jackson Lab). […]
In the chronic infusion experiment, 12-week-old SOD1 mice were inserted a brain infusion cannula (connected via catheter-tubing to an Alzet osmotic minipump) to the right lateral ventricle under isoflurane anesthesia. […] Motor behavior was evaluated with rotarod. Mice were evaluated for clinical signs and body weight changes.
Clinical scoring for SOD1 mice was done using instructions from Jackson laboratory. […] Animals were scored by lifting them gently by the base of their tails and observing them for tremors, stiffness and their ability to extend their limbs. […]

[3] = system: dopaminergic neurons; assay: Survival of TH-positive dopaminergic neurons in midbrain cultures; format: cell-based; conditions: added to culture medium, 5 days, E13/E13.5 NMRI mouse midbrain floors
Protocol: To study the dopamine neurons (Yu et al., 2008; Yu and Arumae, 2008), the midbrain floors were dissected from the ventral mesencephali of 13.5-d-old NMRI strain mouse embryos. Tissues were incubated with 0.5% trypsin (ICN Biomedical), then mechanically dissociated using a large fire-polished Pasteur pipette. […] Same amount of the neurons were plated to each well at the beginning of the experiments. The cultures without added neurotrophic factors served as the negative control. As the midbrain cultures contain several neuronal types, the cultures were fixed and immunostained with the antibodies to tyrosine hydroxylase (TH) (Millipore), a specific marker for the dopaminergic neurons. Images of each well were scanned by CellInsight™ and immunopositive neurons were counted by CellProfiler and CellProfiler analyst software. Data are expressed as a percentage of GDNF-maintained TH-positive neurons. All experiments were repeated at least three times on the independent cultures. The results were expressed as the mean the SEM and were tested for the significance by either one-way ANOVA and Tukey's post hoc test or by two-tailed Student's t-test. The null hypothesis was rejected at P<0.05.

[4] = system: Huntington's disease rat model (quinolinic acid); assay: Quinolinic acid Huntington's disease rat model, rotarod and grip strength; format: in vivo; conditions: single intrastriatal injection 2 weeks after QA, vs QA+PBS
Description: Adult Wistar rats received a single, unilateral intrastriatal injection of quinolinic acid (QA) 225 nmol into coordinates: A/P+0.7; L/M+2.8; D/V −6.0. Quinolinic acid is a toxin that induces striatal neuron death by an excitotoxic process. […] Rats were randomized to groups before the treatments started. Rotarod and grip strength tests were done weekly.

B1: C-CDNF: Human C-CDNF, SEQ ID NO: 4: C-terminal domain of mature CDNF, amino acid 101 to 161; recombinant, Histidine tag at C-terminus (protein, listed as Homo sapiens)
chain: KYEKTLDLASVDLRKMRVAELKQILHSWGEECRACAEKTDYVNLIQELAPKYAATHPKTEL
B1 was tested, and the infarction volume ([1]; 50 μg s.c. before dMCA occlusion and after reperfusion, rostral part of cerebral cortex, 2 days after dMCAo) was “decreases the infarction volume”, the “lesion size, smaller than in vehicle treated rats” value ([1]; 50 μg s.c. before occlusion and after reperfusion, vs PBS) was “about 50%” and the “blood pressure and heart rate” value ([1]; rat, in vivo) was “does not affect blood pressure and heart rate”. The “rotarod performance (motor coordination)” value ([2]; significant week 13 until week 19) was “improves motor coordination”, the “relative changes in body weight” value ([2]; weeks 18 and 19) was “Significant differences between treatments in body weight” and the “TH-positive neurons, percentage of GDNF-maintained neurons” value [3] was “protects dopaminergic neurons in vitro”. For the same molecule, the “rotarod latency to fall (motor behavior)” value ([4]; equimolar to CDNF 10 micrograms) was “improved motor behavior statistically significantly; also recorded: improved motor performance in both rotarod and grip strength tests” and the “grip strength (left paw)” value ([4]; 3 and 5 week time points) was “significantly improved performance at 3 and 5 week time points; also recorded: improved motor performance in both rotarod and grip strength tests”.
